In the supplement of paper PMC10567573:

B1: DVL3 (parent)
chain: SDVVDWLYHNVEGFTDRREARKYA

Variants of: B1
Assay: protein stability index of a GFP-peptide fusion (GPS, HEK-293T) (PSI 1-6); higher = more stable
Conditions: c terminus: a fixed tail appended
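Note: lentivirally expressed fusions sorted by FACS into six bins by GFP to DsRed ratio, PSI derived from sequencing read proportions per bin multiplied by bin number.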

Variant | protein stability index
SDVVDWLYHNVEGRTDRREARKYA | 2.56
SDVVDWLYHNVEGTTDRREARKYA | 3.87
SDVVDWLYHNVEGQTDRREARKYA | 3.86
SDVVDWLYHNVEGDTDRREARKYA | 3.95
SDVVDWLYHNVEGSTDRREARKYA | 4.19
SDVVDWLYHNVEGPTDRREARKYA | 3.61
SDVVDWLYHNVEGLTDRREARKYA | 3.11
SDVVDWLYHNVEGGTDRREARKYA | 3.96
SDVVDWLYHNVEGITDRREARKYA | 3.97
SDVVDWLYHNVEGETDRREARKYA | 4.77
SDVVDWLYHNVEGNTDRREARKYA | 3.61
SDVVDWLYHNVEGKTDRREARKYA | 4.76
SDVVDWLYHNVEGHTDRREARKYA | 3.27
SDVVDWLYHNVEGCTDRREARKYA | 3.04
SDVVDWLYHNVEGWTDRREARKYA | 3.18
SDVVDWLYHNVKGFTDRREARKYA | 3.54
SDVVDWLYHNVSGFTDRREARKYA | 2.83
SDVVDWLYHNVQGFTDRREARKYA | 2.98
SDVVDWLYHNVFGFTDRREARKYA | 1.98
SDVVDWLYHNVNGFTDRREARKYA | 2.5
SDVVDWLYHNVAGFTDRREARKYA | 3.49
SDVVDWLYHNVRGFTDRREARKYA | 2.78
SDVVDWLYHNVPGFTDRREARKYA | 2.33
SDVVDWLYHNVDGFTDRREARKYA | 2.96

Variant | protein stability index
SDVVDWLYHNVLGFTDRREARKYA | 2.08
SDVVDWLYHNVMGFTDRREARKYA | 2.01
SDVVDWLYHNVIGFTDRREARKYA | 1.94
SDVVDWLYHNVYGFTDRREARKYA | 1.58
SDVVDWLYHNVWGFTDRREARKYA | 2.04
SDVVDWLYHNVVGFTDRREARKYA | 1.28
SDVVDWLYHNVGGFTDRREARKYA | 2.37
SDVVDWLYHNVHGFTDRREARKYA | 2.88
SDVVDWLYHNVCGFTDRREARKYA | 2.18
SDVVDWLYHNVTGFTDRREARKYA | 2.63
SDVVDWLYHNVEGFTDRREADKYA | 3.52
SDVVDWLYHNVEGFTDRREACKYA | 2.31
SDVVDWLYHNVEGFTDRREAEKYA | 3.57
SDVVDWLYHNVEGFTDRREAAKYA | 2.48
SDVVDWLYHNVEGFTDRREAFKYA | 2.65
SDVVDWLYHTVEGFTDRREARKYA | 3.33
SDVVDWLYHSVEGFTDRREARKYA | 3.01
SDVVDWLYHYVEGFTDRREARKYA | 2.01
SDVVDWLYHVVEGFTDRREARKYA | 2.58
SDVVDWLYHWVEGFTDRREARKYA | 2.63
SDVVDWLYHNVEGFTERREARKYA | 3
SDVVDWLYHNVEGFTLRREARKYA | 2.07
SDVVDWLYHNVEGFTVRREARKYA | 2.24
SDVVDWLYHNVEGFTMRREARKYA | 2.29

Variant | protein stability index
SDVVDWLYHNVEGFTRRREARKYA | 2.21
SDVVDWLYHNVEGFTHRREARKYA | 2.37
SDVVDWLYHNVEGFTWRREARKYA | 2.12
SDVVDWLYHNVEGFTCRREARKYA | 1.92
SDVVDWLYHNVEGFTQRREARKYA | 3.19
SDVVDWLYHNVEGFTKRREARKYA | 2.29
SDVVDWLYHNVEGFTPRREARKYA | 3.74
SDVVDWLYHNVEGFTIRREARKYA | 3.24
SDVVDWLYHNVEGFTYRREARKYA | 2.06
SDVVDWLYHNVEGFTARREARKYA | 2.45
SDVVDWLYHNVEGFTTRREARKYA | 2.66
SDVVDWLYHNVEGFTFRREARKYA | 2.94
SDVVDWLYHNVEGFTDRREIRKYA | 1.98
SDVVDWLYHNVEGFTDRREQRKYA | 2.69
SDVVDWLYHNVEGFTDRREYRKYA | 2.34
SDVVDWLYHNVEGFTDRREFRKYA | 2.28
SDVVDWLYHNVEGFTDRREERKYA | 3.5
SDVVDWLYHNVEGFTDRREVRKYA | 1.83
SDVVDWLYHNVEGFTDRRECRKYA | 2.73
SDVVDWLYHNVEGFTDRRESRKYA | 3.43
SDVVDWLYHNVEGFTDRREMRKYA | 3.28
SDVVDWLYHNVEGFTDRREDRKYA | 3.1
SDVVDWLYHNVEGFTDRREGRKYA | 4.09
SDVVDWLYHNVEGFTDRREKRKYA | 2.56

Variant | protein stability index
SDVVDWLYHNVEGFTDRREWRKYA | 2.18
SDVVDWLYHNVEGFTDRRELRKYA | 2.34
SDVVDWLYHNVEGFTDRRETRKYA | 3.16
SDVVDWLYHNVEGFTDRREHRKYA | 3.02
SDVVDWLYHNVEGFTDRRENRKYA | 2.96
SDVVDWLYHNVEGFTDRRERRKYA | 3.15
SDVVDWLYHNVEGFTDRREPRKYA | 4.29
SDVVDWLYHNVEGFTDRRCARKYA | 2.38
SDVVDWLYHNVEGFTDRRKARKYA | 2.33
SDVVDWLYHNVEGFTDRRFARKYA | 2.34
SDVVDWLYHNVEGFTDRRWARKYA | 1.82
SDVVDWLYHNVEGFTDRRDARKYA | 3.18
SDVVDWLYHNVEGFTDRRIARKYA | 2.25
SDVVDWLYHNVEGFTDRRTARKYA | 2.64
SDVVDWLYHNVEGFTDRRYARKYA | 1.73
SDVVDWLYHNVEGFTDRRMARKYA | 2.67
SDVVDWLYHNVEGFTDRRHARKYA | 2.58
SDVVDWLYHNVEGFTDRRLARKYA | 2.35
SDVVDWLYHNVEGFTDRRVARKYA | 2.66
SDVVDWLYHNVEGFTDRRGARKYA | 3.02
SDVVDWLYHNVEGFTDRRAARKYA | 2.54
SDVVDWLYHNVEGFTDRRPARKYA | 2.85
SDVVDWLYHNVEGFTDRRNARKYA | 2.86
SDVVDWLYHNVEGFTDRRSARKYA | 2.73

Variant | protein stability index
SDVVDWLYHNGEGFTDRREARKYA | 4.04
SDVVDWLYHNLEGFTDRREARKYA | 2.03
SDVVDWLYHNCEGFTDRREARKYA | 3.07
SDVVDWLYHNHEGFTDRREARKYA | 3.6
SDVVDWLYHNNEGFTDRREARKYA | 3.83
SDVVDWLYHNKEGFTDRREARKYA | 3.85
SDVVDWLYHNFEGFTDRREARKYA | 2.46
SDVVDWLYHNSEGFTDRREARKYA | 2.45
SDVVDWLYHNQEGFTDRREARKYA | 3.36
SDVVDWLYHNEEGFTDRREARKYA | 3.53
SDVVDWLYHNREGFTDRREARKYA | 3.1
SDVVDWLYHNYEGFTDRREARKYA | 3.48
SDVVDWLYHNDEGFTDRREARKYA | 3.62
SDVVDWLYHNTEGFTDRREARKYA | 2.67
SDVVDWLYHNIEGFTDRREARKYA | 2.61
SDVVDWLYHNMEGFTDRREARKYA | 2.58
SDVVDWLYHNAEGFTDRREARKYA | 2.8
SDVVDWLYHNWEGFTDRREARKYA | 2.36
SDVVDWLYHNPEGFTDRREARKYA | 4.08
SDVVDWLYHNVEGFTDVREARKYA | 2.37
SDVVDWLYHNVEGFTDAREARKYA | 2.81
SDVVDWLYHNVEGFTDWREARKYA | 2
SDVVDWLYHNVEGFTDFREARKYA | 2.16
SDVVDWLYHNVEGFTDKREARKYA | 3.7

Variant | protein stability index
SDVVDWLYHNVEGFTDDREARKYA | 3.56
SDVVDWLYHNVEGFTDLREARKYA | 2.69
SDVVDWLYHNVEGFTDEREARKYA | 3.82
SDVVDWLYHNVEGFTDHREARKYA | 4.21
SDVVDWLYHNVEGFTDCREARKYA | 3.43
SDVVDWLYHNVEGFTDSREARKYA | 3.9
SDVVDWLYHNVEGFTDYREARKYA | 2.45
SDVVDWLYHNVEGFTDQREARKYA | 3.67
SDVVDWLYHNVEGFTDMREARKYA | 2.63
SDVVDWLYHNVEGFTDIREARKYA | 1.82
SDVVDWLYHNVEGFTDPREARKYA | 3.33
SDVVDWLYHNVEGFTDTREARKYA | 3.09
SDVVDWLYHNVEGFTDNREARKYA | 2.65
SDVVDWLYHNVEQFTDRREARKYA | 2.33
SDVVDWLYHNVERFTDRREARKYA | 3.93
SDVVDWLYHNVEIFTDRREARKYA | 2.28
SDVVDWLYHNVEFFTDRREARKYA | 1.61
SDVVDWLYHNVEKFTDRREARKYA | 2.95
SDVVDWLYHNVENFTDRREARKYA | 2.66
SDVVDWLYHNVEDFTDRREARKYA | 3.66
SDVVDWLYHNVELFTDRREARKYA | 2.28
SDVVDWLYHNVEYFTDRREARKYA | 2.1
SDVVDWLYHNVETFTDRREARKYA | 2.93
SDVVDWLYHNVEVFTDRREARKYA | 2.14

Variant | protein stability index
SDVVDWLYHNVEMFTDRREARKYA | 2.71
SDVVDWLYHNVEWFTDRREARKYA | 2.52
SDVVDWLYHNVEEFTDRREARKYA | 3.3
SDVVDWLYHNVESFTDRREARKYA | 2.96
SDVVDWLYHNVEHFTDRREARKYA | 2.56
SDVVDWLYHNVECFTDRREARKYA | 2.68
SDVVDWLYHNVEAFTDRREARKYA | 2.71
SDVVDWLYHNVEPFTDRREARKYA | 3.2
SDVVDWLYHNVEGFFDRREARKYA | 2.15
SDVVDWLYHNVEGFWDRREARKYA | 2.74
SDVVDWLYHNVEGFMDRREARKYA | 3.02
SDVVDWLYHNVEGFQDRREARKYA | 3.21
SDVVDWLYHNVEGFADRREARKYA | 2.32
SDVVDWLYHNVEGFKDRREARKYA | 2.56
SDVVDWLYHNVEGFNDRREARKYA | 3.13
SDVVDWLYHNVEGFGDRREARKYA | 2.7
SDVVDWLYHNVEGFLDRREARKYA | 2.91
SDVVDWLYHNVEGFCDRREARKYA | 2.67
SDVVDWLYHNVEGFHDRREARKYA | 3.23
SDVVDWLYHNVEGFPDRREARKYA | 2.92
SDVVDWLYHNVEGFDDRREARKYA | 3.04
SDVVDWLYHNVEGFRDRREARKYA | 2.91
SDVVDWLYHNVEGFVDRREARKYA | 2.85
SDVVDWLYHNVEGFYDRREARKYA | 3.24

Variant | protein stability index
SDVVDWLYHNVEGFIDRREARKYA | 2.83
SDVVDWLYHNVEGFTDREEARKYA | 3.84
SDVVDWLYHNVEGFTDRFEARKYA | 2.35
SDVVDWLYHNVEGFTDRHEARKYA | 3.41
SDVVDWLYHNVEGFTDRSEARKYA | 3.43
SDVVDWLYHNVEGFTDRNEARKYA | 3.55
SDVVDWLYHNVEGFTDRTEARKYA | 3.59
SDVVDWLYHNVEGFTDRLEARKYA | 2.04
SDVVDWLYHNVEGFTDRGEARKYA | 2.38
SDVVDWLYHNVEGFTDRDEARKYA | 3.99
SDVVDWLYHNVEGFTDRQEARKYA | 2.94
SDVVDWLYHNVEGFTDRVEARKYA | 3.53
SDVVDWLYHNVEGFTDRPEARKYA | 3.03
SDVVDWLYHNVEGFTDRWEARKYA | 1.55
SDVVDWLYHNVEGFTDRMEARKYA | 2.4
SDVVDWLYHNVEGFTDRIEARKYA | 2.42
SDVVDWLYHNVEGFTDRYEARKYA | 2.19
SDVVDWLYHNVEGFTDRKEARKYA | 2.97
SDVVDWLYHNVEGFTDRAEARKYA | 3.19
SDVVDWLYHNVEGFTDRCEARKYA | 2.52
